The text below walks through data of US10925971B2, “Methods of treating PRLR positive breast cancer” (Regeneron Pharmaceuticals, Inc., priority 2016, dated 2021).

In test [1] the test system is Macaca fascicularis PRLR (mfPRLR.mmh; SEQ ID NO:403). The test can be described thus: Surface plasmon resonance (Biacore T200), antibody-capture format. As to conditions: analyte mfPRLR.mmh. Format: binding. The essentials:
(§1)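 Antibodies (human IgG1 Fc) captured on an anti-human Fc sensor surface; soluble monomeric (.mmh) or dimeric (.mFc) PRLR injected as analyte. ka and kd obtained by fitting to a 1:1 binding model.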
A general note: SPR reads the build-up and loss of mass on a sensor chip optically.

The target in test [2] is T1, dimeric human PRLR (hPRLR.mFc; SEQ ID NO:402) (Homo sapiens, UniProt P16471).
T1 construct: dimeric (hPRLR.mFc)
T1 sequence (P16471 with tags, fused parts or gaps): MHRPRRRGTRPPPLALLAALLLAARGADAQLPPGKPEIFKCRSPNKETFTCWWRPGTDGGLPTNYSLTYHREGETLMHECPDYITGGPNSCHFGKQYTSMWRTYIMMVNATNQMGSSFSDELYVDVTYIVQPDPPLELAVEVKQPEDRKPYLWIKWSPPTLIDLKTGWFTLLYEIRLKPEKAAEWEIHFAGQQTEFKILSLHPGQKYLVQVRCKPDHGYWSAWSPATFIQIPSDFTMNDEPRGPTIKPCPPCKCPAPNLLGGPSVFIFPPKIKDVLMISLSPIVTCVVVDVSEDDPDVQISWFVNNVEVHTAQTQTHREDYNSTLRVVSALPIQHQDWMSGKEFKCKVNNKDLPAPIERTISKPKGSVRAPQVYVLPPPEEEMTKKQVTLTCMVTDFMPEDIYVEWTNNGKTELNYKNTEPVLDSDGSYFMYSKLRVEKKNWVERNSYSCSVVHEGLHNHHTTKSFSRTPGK
The description is as above. Format: binding. As to conditions: analyte hPRLR.mFc. An outline of the steps:
as §1

For test [3], the target named is T2, monomeric human PRLR (hPRLR.mmh; SEQ ID NO:401) (Homo sapiens, UniProt P16471).
T2 construct: soluble monomeric (hPRLR.mmh); mmh (myc-myc-hexahistidine) (C)
T2 sequence (P16471 with tags, fused parts or gaps): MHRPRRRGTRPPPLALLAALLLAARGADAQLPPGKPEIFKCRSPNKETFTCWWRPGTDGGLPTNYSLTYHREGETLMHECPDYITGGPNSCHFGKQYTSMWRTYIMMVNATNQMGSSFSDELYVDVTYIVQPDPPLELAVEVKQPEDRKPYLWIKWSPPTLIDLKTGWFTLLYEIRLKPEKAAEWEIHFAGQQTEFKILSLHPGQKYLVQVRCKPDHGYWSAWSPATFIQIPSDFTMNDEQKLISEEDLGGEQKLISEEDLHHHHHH
Described as above. As to conditions: analyte hPRLR.mmh. In kind it is binding. An outline of the steps:
as §1

Test [4] has as its system MCF7/PRLR tumors. Briefly: MCF7/PRLR breast cancer xenograft, tumor size and tumor growth inhibition. In kind it is in vivo, NCr nude mice. Conditions: MCF7/PRLR tumors TRIAL #1; NCr Nude mice; multi-dose 15 mg/kg; Day 52. An outline of the steps:
(§2)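 MCF7/PRLR cells in mammary fat pad of female NCr nude mice, PC3/PRLR in flank of male SCID, T47D #11 in flank of female CB17 SCID, all with estrogen pellets.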

Test [5] has as its system PC3/PRLR tumors. The test can be described thus: PC3/PRLR xenograft, tumor size and tumor growth inhibition. As to conditions: PC3/PRLR tumors TRIAL #1; SCID mice; multi-dose 15 mg/kg; Day 63. In kind it is in vivo, SCID mice. An outline of the steps:
as §2

Sequence of Macaca fascicularis PRLR (mfPRLR.mmh; SEQ ID NO:403) (as listed by the source): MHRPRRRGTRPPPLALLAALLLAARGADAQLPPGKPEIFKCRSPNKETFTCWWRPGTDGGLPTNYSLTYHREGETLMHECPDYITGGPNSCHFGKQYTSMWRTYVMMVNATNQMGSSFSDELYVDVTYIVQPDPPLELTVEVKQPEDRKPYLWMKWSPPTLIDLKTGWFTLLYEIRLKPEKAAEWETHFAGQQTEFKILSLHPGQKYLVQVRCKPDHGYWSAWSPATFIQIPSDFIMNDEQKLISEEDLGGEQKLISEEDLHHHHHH

B1: H1H6953N: anti-PRLR antibody, human IgG1 Fc form of H1M6953N of Table 1; HCVR/LCVR SEQ ID NOs 274/282 (antibody, V domains shown)
VH: EVQLLESGGGLVQPGGTLRLSCAASGFTFSAYAMSWVRQAPGKGLEWVSSINVRAGDTYYADSVKGRFTISRDNSKNTLFLLMNSLRAEDTAAYYCAKARYSSNWGFDFWGQGTLVTVSS
VL: DIVMTQSPDSLTVSLGARTTINCQSSQTILHSSNNHNYLAWYQQKPGLPPKLLIYWSSTRESGVPDRFSGSGSGTDFTLTISSLQAEDVAIYYCQQYSNTPYTFGQGTKLEIN
Take B1: the ka worked out at 727000 M/s in test [1] (25° C.); 947000 M/s in test [1] (37° C.); 711000 M/s in test [2] (25° C.); 1.47e+06 M/s in test [2] (37° C.); 792000 M/s in test [3] (25° C.); 1.1e+06 M/s in test [3] (37° C.). In addition, the kd in test [1] (25° C.) turned out to be 0.000319 s⁻¹; in test [1] (37° C.), 0.00256 s⁻¹; in test [2] (25° C.) it was 4.77e-05 s⁻¹; in test [2] (37° C.), 0.00017 s⁻¹; in test [3] (25° C.), 0.000212 s⁻¹; in test [3] (37° C.), 0.00122 s⁻¹. Further, the “Final Tumor size mm^3 (mean ± SEM)” value in test [4] is reported as 421 ± 23 mm^3; in test [5], 1306 ± 127 mm^3. Besides, the “Average Tumor Growth Inhibition (%)” value in test [5] was 0%.

B2: H1H6975N: anti-PRLR antibody, human IgG1 Fc form of H2M6975N of Table 1; HCVR/LCVR SEQ ID NOs 370/378 (antibody, V domains shown)
VH: EVHLVESGGGLVQPGGSLRLSCAASGFTFSSYEMNWVRQTPGKGLEWISHISSRSVIIYYADSVKGRFTISRDNAKNSLFLQMNSLRAEDTAVYFCAGITIFGIPEYWGQGTLVTVSS
VL: EIVLTQSPATLSLSPGERATLSCRASQSVSSYFAWYQQKPGQAPRLLIYDASSRATGIPTRFSGSGSGTDFTLTISSLEPEDFAVYYCQQRSSWPITFGQGTRLEIK
modifications: human IgG1 Fc
With B2, the ka in test [1] (25° C.) turned out to be 115000 M/s; in test [1] (37° C.), 140000 M/s; in test [2] (25° C.), 287000 M/s; in test [2] (37° C.) it was 386000 M/s; in test [3] (25° C.), 150000 M/s; in test [3] (37° C.) it was 211000 M/s. Besides, the kd came to 0.000131 s⁻¹ in test [1] (25° C.); 0.000317 s⁻¹ in test [1] (37° C.); 1.97e-05 s⁻¹ in test [2] (25° C.); 7.09e-05 s⁻¹ in test [2] (37° C.); 7.35e-05 s⁻¹ in test [3] (25° C.); 0.000273 s⁻¹ in test [3] (37° C.). Further, the “Average Tumor Growth Inhibition (%)” value amounted to 51% in test [4] and 12% in test [5]. Moreover, the “Final Tumor size mm^3 (mean ± SEM)” value in test [4] worked out at 659 ± 144 mm^3; in test [5], 1185 ± 97 mm^3.
